Patent US20130224224A1 (Boehringer Ingelheim, published 2013)

T1: cynomolgus CX3CR1 (cynomolgus, UniProt P49238 1-355 (human entry))
T1 construct: transiently expressed on HEK293T cells; also called cyCX3CR1; cyno CX3CR1
T1 chain: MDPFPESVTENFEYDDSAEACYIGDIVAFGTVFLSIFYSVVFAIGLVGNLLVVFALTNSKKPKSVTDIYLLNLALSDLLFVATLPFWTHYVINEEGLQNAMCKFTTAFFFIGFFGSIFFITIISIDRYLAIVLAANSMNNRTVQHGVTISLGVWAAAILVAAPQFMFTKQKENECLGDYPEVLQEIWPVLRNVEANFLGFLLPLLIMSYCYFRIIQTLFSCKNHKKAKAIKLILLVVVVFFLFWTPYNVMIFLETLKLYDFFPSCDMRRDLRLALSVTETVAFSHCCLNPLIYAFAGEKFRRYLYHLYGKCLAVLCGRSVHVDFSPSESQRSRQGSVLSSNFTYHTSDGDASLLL

T2: human CX3CR1 (human, UniProt P49238 1-355)
T2 construct: overexpressed on CHO, BA/F3 or HEK293T cells; also called huCX3CR1; hCX3CR1
T2 sequence: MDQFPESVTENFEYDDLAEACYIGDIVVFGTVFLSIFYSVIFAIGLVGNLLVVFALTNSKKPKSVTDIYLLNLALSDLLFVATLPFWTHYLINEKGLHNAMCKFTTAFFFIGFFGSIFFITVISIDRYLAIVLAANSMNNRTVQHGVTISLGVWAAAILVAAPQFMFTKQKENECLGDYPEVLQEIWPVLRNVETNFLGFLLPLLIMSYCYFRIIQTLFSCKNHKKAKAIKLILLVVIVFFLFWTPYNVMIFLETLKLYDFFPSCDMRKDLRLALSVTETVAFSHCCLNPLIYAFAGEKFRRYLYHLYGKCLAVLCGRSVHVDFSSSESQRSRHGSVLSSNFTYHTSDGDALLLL


Tests used:
[1] = target: T1, cynomolgus CX3CR1; experiment: A647-fractalkine competition FACS, HEK293T cynomolgus CX3CR1
From the text: (§1) Periplasmic extracts were screened in a human CX3CR1/human Fractalkine FACS competition assay to assess the blocking capacity of the expressed VHHs. Human CX3CR1 was presented on CHO cells overexpressing CX3CR1. Both a setup using cells harvested from an actively growing culture and a setup using frozen cells was used. As a detection reagent labeled fractalkine was used (R&D Systems, Minneapolis, Minn., USA) labeled with alexa647 (A647-Fractalkine) at a degree of labeling of 1. To setup the assay, first a titration series of the labeled fractalkine was performed on the CHO-huCX3CR1 cells in order to determine the EC50 value for binding. Initially screening was performed at a higher concentration of fractalkine (3 nM) to increase the assay robustness. To increase the sensitivity of the screening to a maximum, the EC30 concentration (1 nM) was chosen for subsequent screening. In brief 50 μl of periplasmic extract was added to 6 nM labeled fractalkine (50 μ;) and 200 000 CHO-huCX3CR1 cells. After one hour incubation at 4 C, cells were washed three times before read out was performed on a FACS Array (Becton Dickinson). First a gate was set on the intact cells as determined from the scatter profile. Next, dead cells were gated out by their fluorescence profile from the PI stain (Sigma, St Louis, US). The fluorescence profile from the alexa647 label was determined for each sample and used for calculation of blocking capacity. As controls, conditions were taken along where there was no VHH present in the peri extract or a known irrelevant VHH and samples were included where excess cold fractalkine was included. For each sample the percentage block was determined using the control samples to determine the assay window.
(§2) For later identified VHHs, a human Fractalkine competition FACS was set up using human or cynomolgus CX3CR1 expressed in HEK293T cells. Both the human and the cynomolgus receptor was transiently transfected in HEK293T cells and transfections were matched by the binding of the labeled ligand, human fractalkine. The competition was evaluated using the EC30 concentration of fractalkine and as such obtained IC50 values are a good estimate of the Ki value, a measure for affinity (Table 22). The experiment was performed as described in Example 4.

[2] = target: T2, human CX3CR1; experiment: fractalkine competition FACS
[3] = target: T2, human CX3CR1; experiment: competition FACS, BA/F3-huCX3CR1; competitor alexa647-labeled 66B02
From the text: A competitive binding experiment was setup in order to determine whether the VHHs bind overlapping epitopes on CX3CR1. For this, the VHH 66B02 labeled with alexa647 was used in a competition FACS on the BA/F3 cells expressing huCX3CR1. Representative VHHs from the three functional families were used as competitors for the binding of the labeled 66B02.

[4] = target: T2, human CX3CR1; experiment: cell-based or functional assay
[5] = target: T2, human CX3CR1; experiment: A647-fractalkine competition FACS, HEK293-huCX3CR1
From the text: as §1
The blocking capacity towards the ligand fractalkine of the VHHs was evaluated in a human CX3CR1 competition FACS as outlined in Example 4. Either CHO-huCX3CR1 cells, BA/F3-huCX3CR1 cells or transiently transfected HEK293T cells were used. The amount of labeled ligand used in the different competition setups was also varied. The IC₅₀ values for VHHs blocking the interaction of human fractalkine to human CX3CR1 are depicted in Table 19.

[6] = target: T2, human CX3CR1; experiment: fractalkine competition FACS; remark: listed apart in the source
[7] = target: T1, cynomolgus CX3CR1; experiment: A647-fractalkine competition FACS, cynomolgus against human CX3CR1
From the text: as §1, §2

[8] = target: T2, human CX3CR1; experiment: A647-fractalkine competition FACS, HEK293T human CX3CR1
From the text: as §1, §2

[9] = target: T2, human CX3CR1; experiment: cell-based or functional assay; remark: listed apart in the source
[10] = target: T2, human CX3CR1; experiment: fractalkine competition FACS; remark: listed apart in the source

| Binder | % block [1] | IC50 [1] | % block [2] | IC50 [2] | % block [3] | IC50 [3] | % block, ligand induced chemotaxis [4] | IC50, ligand induced chemotaxis [4] | % block [5] | IC50 [5] | % block [6] | IC50 [6] | ratio (cynomolgus/human IC50) [7] | % block [8] | IC50 [8] | % block, fractalkine induced chemotaxis [9] | IC50, fractalkine induced chemotaxis [9] | % block [10] | IC50 [10] |
| --- | --- | --- | --- | --- | --- | --- | --- | --- | --- | --- | --- | --- | --- | --- | --- | --- | --- | --- | --- |
| CX3CR1BIIPMP66B02 (VHH, alexa647 label where used as labeled competitor (Table 23), also called CX3CR1BII66B02; C100CX3CR1BII66B02; not shown: C-terminal c-myc and His6 tags) VHH: EVQLVESGGGSVQAGESLRLSCAASGSIFSSNAMAWYRQAPGKRRDLVAAINSVGVTKYADSVKGRFTISRDNAKNTVYLQMNSLKPEDTAVYYCTSDPRRGWDTRYWGQGTQVTVSS | 97% | 19 nM | 98% | 2.5 nM | 100% | 1.5 nM | 91% | 36 nM | 102% | 2.5 nM | 98% | 2.5 nM | 7.5 | 102% | 2.5 nM | 87% | 20 nM | 101% | 2.6 nM |
| CX3CR1BII00307 (VHH, also called CX3CR1BII307) VHH: DVQLVESGGGLVQPGGSLRLSCAASGSIFSSTAMAWYRQAPGKRRDLVAAISTVGVTKYADSVKGRFTISRDNSKNTVYLQMNSLRPEDTAVYYCTSDPRRGWDTRYWGQGTLVTVSS | – | – | 97% | 1.9 nM | – | – | 100% | 63 nM | – | – | – | – | – | – | – | – | – | – | – |

Now those with a lower IC50 [2], led by results:

| % block [1] | IC50 [1] | % block [2] | IC50 [2] | % block [3] | IC50 [3] | % block, ligand induced chemotaxis [4] | IC50, ligand induced chemotaxis [4] | % block [5] | IC50 [5] | % block [6] | IC50 [6] | ratio (cynomolgus/human IC50) [7] | % block [8] | IC50 [8] | % block, fractalkine induced chemotaxis [9] | IC50, fractalkine induced chemotaxis [9] | % block [10] | IC50 [10] | Binder |
| --- | --- | --- | --- | --- | --- | --- | --- | --- | --- | --- | --- | --- | --- | --- | --- | --- | --- | --- | --- |
| – | – | 97% | 1.7 nM | – | – | 95% | 63 nM | – | – | – | – | – | – | – | – | – | – | – | CX3CR1BII00306 (VHH, also called CX3CR1BII306) VHH: DVQLVESGGGLVQPGGSLRLSCAASGSIFSSTAMAWYRQAPGKRRDLVAAISSVGVTKYADSVKGRFTISRDNSKNTVYLQMNSLRPEDTAVYYCTSDPRRGWDTRYWGQGTLVTVSS |
| – | – | 97% | 1.6 nM | – | – | 89% | 44 nM | – | – | – | – | – | – | – | – | – | – | – | CX3CR1BII00308 (VHH, also called CX3CR1BII308) VHH: DVQLVESGGGLVQPGGSLRLSCAASGSIFSSNAMAWYRQAPGKRRDLVAAINSVGVTKYADSVKGRFTISRDNSKNTVYLQMNSLRPEDTAVYYCTSDPRRGWDTRYWGQGTLVTVSS |
